Measurements taken from US20140322717.

Test system: TspRI (Thermus sp.?)
Assay: cleavage_in_vitro
Conditions: destruction of wild type PCR product during qPCR, 85 C denaturation

Sequence: AGACATACTTATTGACTCTAAGAGGAAAGATGAAGTACTATGTTTTAAAGAATATTATATTACAGAATTATAGAAATTAGATCTCTTACCTAAACTCTTCATAAAGCTTGCTCTGATAGGAAAATGAGATCTACTGTTTTCCTTTACTTACTACACCTCAGATATATTTCTTCATGAAGACCTCACAGTAAAAATAGGTGATTTTGGTCTAGCTACAGTGAAATCTCGATGGAGTGAGTCCCATCAGTTTGAACAGTTGTCTGGATCCATTTTGTGGATGGTAAGAATTGAGGCTATTTTTCCACTGATTAAATTTTTGGCCCTGAGATGCTGCTGAGTTACTAGAAAGTCATTGAAGGTCTCAACTATAGTATTTTCATAGTTCCCAGT (double strand) [B-raf synthetic wild type template]
- activity: > 99%
